Target: T1, BMC02 (uncultured bacterium (metagenome))
T1 chain: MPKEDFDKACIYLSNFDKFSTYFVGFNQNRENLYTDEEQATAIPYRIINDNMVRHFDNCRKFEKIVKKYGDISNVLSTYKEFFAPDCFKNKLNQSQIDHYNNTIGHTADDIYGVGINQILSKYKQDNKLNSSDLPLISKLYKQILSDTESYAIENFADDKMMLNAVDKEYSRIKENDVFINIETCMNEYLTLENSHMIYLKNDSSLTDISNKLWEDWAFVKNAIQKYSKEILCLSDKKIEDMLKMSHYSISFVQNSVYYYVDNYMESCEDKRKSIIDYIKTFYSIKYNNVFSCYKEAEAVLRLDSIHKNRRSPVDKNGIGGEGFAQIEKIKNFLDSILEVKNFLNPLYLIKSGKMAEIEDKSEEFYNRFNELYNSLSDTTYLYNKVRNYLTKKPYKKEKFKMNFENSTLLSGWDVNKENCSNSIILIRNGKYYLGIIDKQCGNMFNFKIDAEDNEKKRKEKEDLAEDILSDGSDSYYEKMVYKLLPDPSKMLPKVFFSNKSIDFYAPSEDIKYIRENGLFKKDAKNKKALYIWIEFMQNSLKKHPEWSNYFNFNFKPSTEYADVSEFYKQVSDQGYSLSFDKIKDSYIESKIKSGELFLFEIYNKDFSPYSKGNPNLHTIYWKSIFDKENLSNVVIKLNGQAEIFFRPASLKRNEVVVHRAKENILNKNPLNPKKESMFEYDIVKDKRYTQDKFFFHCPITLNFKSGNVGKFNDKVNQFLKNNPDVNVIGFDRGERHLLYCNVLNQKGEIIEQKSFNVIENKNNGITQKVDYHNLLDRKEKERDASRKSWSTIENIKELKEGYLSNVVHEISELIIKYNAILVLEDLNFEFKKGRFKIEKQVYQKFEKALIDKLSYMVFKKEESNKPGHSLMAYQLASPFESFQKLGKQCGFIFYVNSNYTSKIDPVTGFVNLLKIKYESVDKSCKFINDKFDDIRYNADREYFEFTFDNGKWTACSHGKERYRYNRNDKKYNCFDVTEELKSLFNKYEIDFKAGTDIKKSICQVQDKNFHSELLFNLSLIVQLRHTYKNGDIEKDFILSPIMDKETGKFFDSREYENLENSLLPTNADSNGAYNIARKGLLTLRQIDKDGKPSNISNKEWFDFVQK
Experiment: cell_activity; PAM not stated; E. coli depletion, 30 C
Method in brief: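 E. coli carrying arabinose-induced (0.2%) BMC nuclease, grown at 30° C., made electrocompetent and electroporated with 50-100 ng plasmid carrying gRNA against malQ. Transformants plated on selective M9-glucose agar with kanamycin/ampicillin (± nourseothricin), and growth scored after 48 h at 30° C.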

B1: malQ gRNA (BMC stem-loop + 24 nt spacer) ; malQ protospacer (ssRNA ; dsDNA)
RNA: GAUUUCUACUAUUGUAGAUGUGGCGGUACGUUGAUGCAUCGCG
DNA 1: GTGGCGGTACGTTGATGCATCGCG
DNA 2: CGCGATGCATCAACGTACCGCCAC
activity: > 99.9 % colony reduction

From patent US20250277199, “NOVEL CRISPR-CAS NUCLEASES FROM METAGENOMES” (Brain Biotech AG, published 2025)
